Where two headings read alike, the source gives them in different places.
Key:
[1] = target: IgG1 heavy chain with wildtype CH3 (construct vector MV1057, wildtype IgG1 Fc) (human) [IgG part: P01857]; test: native MS; transfection M: vectors I+II co-expressed 1:1
[2] = target: IgG1 heavy chain with wildtype CH3 (construct vector MV1057, wildtype IgG1 Fc) (human) [IgG part: P01857]; test: native MS; transfection N: vectors I+III co-expressed 1:1
[3] = target: IgG1 heavy chain with wildtype CH3 (construct vector MV1057, wildtype IgG1 Fc) (human) [IgG part: P01857]; test: native MS; transfection U: vectors I+III co-expressed 1:5
[4] = target: IgG1 heavy chain with wildtype CH3 (construct vector MV1057, wildtype IgG1 Fc) (human) [IgG part: P01857]; test: native MS; transfection O: vectors I+II+III co-expressed 1:1:1
[5] = target: IgG1 heavy chain with wildtype CH3 (construct vector MV1057, wildtype IgG1 Fc) (human) [IgG part: P01857]; test: native MS; transfection V: vectors I+II+III co-expressed 1:1:10
[6] = target: IgG1 heavy chain with wildtype CH3 (construct vector MV1057, wildtype IgG1 Fc) (human) [IgG part: P01857]; test: native MS; transfection A: vector I alone (VH MF1337, wildtype CH3)
[7] = target: IgG1 heavy chain with CH3 construct 63 (L351D) (human) [IgG part: P01857]; test: native MS; transfection ZO (1:1): vectors XIII+XVI co-expressed
[8] = target: IgG1 heavy chain with CH3 construct 63 (L351D) (human) [IgG part: P01857]; test: native MS; transfection ZT (3:1): vectors XIII+XVI co-expressed
[9] = target: IgG1 heavy chain with CH3 construct 63 (L351D) (human) [IgG part: P01857]; test: native MS; transfection ZU (1:1): vectors XIII+XVI co-expressed
[10] = target: IgG1 heavy chain with CH3 construct 63 (L351D) (human) [IgG part: P01857]; test: native MS; transfection ZV (1:3): vectors XIII+XVI co-expressed
[11] = target: IgG1 heavy chain with CH3 construct 63 (L351D) (human) [IgG part: P01857]; test: native MS; transfection ZW (1:1): vectors XIII+XVI co-expressed
[12] = target: IgG1 heavy chain with CH3 construct 63 (L351D) (human) [IgG part: P01857]; test: native MS; combination 2 co-expressed (A: VH MF1337, B: VH MF1122)
[13] = target: IgG1 heavy chain with CH3 construct 63 (L351D) (human) [IgG part: P01857]; test: native MS; combination 7 co-expressed (A: VH MF1337, B: VH MF1122)
[14] = target: IgG1 heavy chain with CH3 construct 63 (L351D) (human) [IgG part: P01857]; test: SDS-PAGE of protein A-purified supernatant; construct expressed alone
[15] = target: IgG1 heavy chain with CH3 construct 66 (V397D) (human) [IgG part: P01857]; test: native MS; transfection ZR: vectors XV+XIX co-expressed
[16] = target: IgG1 heavy chain with CH3 construct 64 (T366D) (human) [IgG part: P01857]; test: native MS; transfection ZP: vectors XIV+XVII co-expressed
[17] = target: IgG1 heavy chain with CH3 construct 64 (T366D) (human) [IgG part: P01857]; test: native MS; combination 15 co-expressed (A: VH MF1337, B: VH MF1122)
[18] = target: IgG1 heavy chain with CH3 construct 76 (L351K, L368K) (human) [IgG part: P01857]; test: as above
[19] = target: IgG1 heavy chain with CH3 construct 64 (T366D) (human) [IgG part: P01857]; test: native MS; combination 16 co-expressed (A: VH MF1337, B: VH MF1122)
[20] = target: IgG1 heavy chain with CH3 construct 77 (L351R) (human) [IgG part: P01857]; test: as above
[21] = target: IgG1 heavy chain with CH3 construct 64 (T366D) (human) [IgG part: P01857]; test: SDS-PAGE of protein A-purified supernatant; construct expressed alone
[22] = target: IgG1 heavy chain with CH3 construct 2 (K392D, K409D) (human) [IgG part: P01857]
[23] = target: IgG1 heavy chain with CH3 construct 2 (K392D, K409D) (human) [IgG part: P01857]; test: native MS; transfection I: vectors IV+V co-expressed 1:1
[24] = target: IgG1 heavy chain with CH3 construct 3 (K392D, K409D, K439D) (human) [IgG part: P01857]; test: native MS; transfection J: vectors IV+VII co-expressed 1:1
[25] = target: IgG1 heavy chain with CH3 construct 1 (E356K, D399K) (human) [IgG part: P01857]; test: SDS-PAGE of protein A-purified supernatant; construct expressed alone
[26] = target: IgG1 heavy chain with CH3 construct 1 (E356K, D399K) (human) [IgG part: P01857]; test: native MS; transfection S: vectors IV+V+VI 2:1:1; homodimer of vector IV
[27] = target: IgG1 heavy chain with CH3 construct 1 (E356K, D399K) (human) [IgG part: P01857]; test: native MS; transfection B: vector IV alone (thyroglobulin VH, construct 1)
[28] = target: IgG1 heavy chain with CH3 construct 1 (E356K, D399K) (human) [IgG part: P01857]; test: native MS; transfection T: vectors IV+VII+VIII 2:1:1; homodimer of vector IV
[29] = target: IgG1 heavy chain with CH3 construct 2 (K392D, K409D) (human) [IgG part: P01857]; test: native MS; transfection S: vectors IV+V+VI 2:1:1; BC = vector IV with vector V
[30] = target: IgG1 heavy chain with CH3 construct 2 (K392D, K409D) (human) [IgG part: P01857]; test: native MS; transfection S: vectors IV+V+VI 2:1:1; AB = vector IV with vector VI
[31] = target: IgG1 heavy chain with CH3 construct 3 (K392D, K409D, K439D) (human) [IgG part: P01857]; test: native MS; transfection L: vectors IV+VII+VIII 1:1:1; BC = vector IV with vector VII
[32] = target: IgG1 heavy chain with CH3 construct 3 (K392D, K409D, K439D) (human) [IgG part: P01857]; test: native MS; transfection T: vectors IV+VII+VIII 2:1:1; BC = vector IV with vector VII
[33] = target: IgG1 heavy chain with CH3 construct 3 (K392D, K409D, K439D) (human) [IgG part: P01857]; test: native MS; transfection L: vectors IV+VII+VIII 1:1:1; AB = vector IV with vector VIII
[34] = target: IgG1 heavy chain with CH3 construct 3 (K392D, K409D, K439D) (human) [IgG part: P01857]; test: native MS; transfection T: vectors IV+VII+VIII 2:1:1; AB = vector IV with vector VIII
[35] = target: IgG1 heavy chain with CH3 construct 2 (K392D, K409D) (human) [IgG part: P01857]; test: native MS (peak height); transfection #11 of Table 24; CC = C (fibrinogen)/1 with C/2
[36] = target: IgG1 heavy chain with CH3 construct 2 (K392D, K409D) (human) [IgG part: P01857]; test: native MS (peak height); transfection #9 of Table 24; CD = C (fibrinogen)/1 with D (RTK2)/2
[37] = target: IgG1 heavy chain with CH3 construct 2 (K392D, K409D) (human) [IgG part: P01857]; test: native MS; transfection K: vectors IV+V+VI 1:1:1; BC = vector IV with vector V (fibrinogen VH)
[38] = target: IgG1 heavy chain with CH3 construct 65 (S354D, Y349D) (human) [IgG part: P01857]; test: native MS; transfection ZQ: vectors XII+XVIII co-expressed
[39] = target: IgG1 heavy chain with CH3 construct 5 (E356K, E357K, K439D, K370D) (human) [IgG part: P01857]; test: native MS; transfection N: vectors I+III co-expressed 1:1
[40] = target: IgG1 heavy chain with CH3 construct 5 (E356K, E357K, K439D, K370D) (human) [IgG part: P01857]; test: native MS; transfection U: vectors I+III co-expressed 1:5
[41] = target: IgG1 heavy chain with CH3 construct 5 (E356K, E357K, K439D, K370D) (human) [IgG part: P01857]; test: native MS; transfection O: vectors I+II+III co-expressed 1:1:1
[42] = target: IgG1 heavy chain with CH3 construct 5 (E356K, E357K, K439D, K370D) (human) [IgG part: P01857]; test: native MS; transfection V: vectors I+II+III co-expressed 1:1:10
[43] = target: IgG1 heavy chain with CH3 construct 5 (E356K, E357K, K439D, K370D) (human) [IgG part: P01857]; test: native MS; transfection H: vector III alone (VH MF1122, construct 5)
[44] = target: IgG1 heavy chain with CH3 construct 72 (L351D, R355D) (human) [IgG part: P01857]; test: native MS; combination 8 co-expressed (A: VH MF1337, B: VH MF1122)
[45] = target: IgG1 heavy chain with CH3 construct 72 (L351D, R355D) (human) [IgG part: P01857]; test: SDS-PAGE of protein A-purified supernatant; construct expressed alone
[46] = target: IgG1 heavy chain with CH3 construct 4 (K392D, D399K, K409D) (human) [IgG part: P01857]; test: native MS; transfection M: vectors I+II co-expressed 1:1
[47] = target: IgG1 heavy chain with CH3 construct 4 (K392D, D399K, K409D) (human) [IgG part: P01857]; test: native MS; transfection O: vectors I+II+III co-expressed 1:1:1
[48] = target: IgG1 heavy chain with CH3 construct 4 (K392D, D399K, K409D) (human) [IgG part: P01857]; test: native MS; transfection V: vectors I+II+III co-expressed 1:1:10
[49] = target: IgG1 heavy chain with CH3 construct 4 (K392D, D399K, K409D) (human) [IgG part: P01857]; test: native MS; transfection G: vector II alone (VH MF1025, construct 4)
[50] = target: IgG1 heavy chain with CH3 construct 67 (K360D) (human) [IgG part: P01857]; test: native MS; transfection ZS: vectors XI+XX co-expressed

Which results are given for “IgG1 heavy chain with wildtype CH3 (construct vector MV1057, wildtype IgG1 Fc) (from UniProt P01857-1)”?
AA found (%) [1]: 51%; AA found (%) [2]: 88%; AA found (%) [3]: 47%; AA found (%) [4]: 66%; AA found (%) [5]: 8%; AA found (%) [6]: 100%

Which results are given for “IgG1 heavy chain with CH3 construct 63 (L351D) (from UniProt P01857-1)”?
CC found (%) [7]: 7%; CC found (%) [8]: 16%; CC found (%) [9]: 10%; CC found (%) [10]: 23%; CC found (%) [11]: 2.4%; % BB found [12]: 3%; % BB found [13]: 12%; % IgG [14]: 89.8%; % half molecule [14]: 10.2%

With “IgG1 heavy chain with CH3 construct 66 (V397D) (from UniProt P01857-1)” as the substance, how does the CC found (%) [15] read?
The CC found (%) was 11%.

What does the source list for “IgG1 heavy chain with CH3 construct 64 (T366D) (from UniProt P01857-1)”?
CC found (%) [16]: 13%; % AA found [17]: 3%; % AB found [18]: 92%; % AA found [19]: 30%; % AB found [20]: 69%; % IgG [21]: 89.6%; % half molecule [21]: 10.4%

Which Bispecific found (%) [22] does the source give for “IgG1 heavy chain with CH3 construct 1 (E356K, D399K) (from UniProt P01857-1)” here?
The Bispecific found (%) was 47%.

What about the Bispecific found (%) [23] of the same substance?
The Bispecific found (%) was 96%.

And the Bispecific found (%) [24]?
Its Bispecific found (%) is 96%.

What about the % IgG [25] of the same substance?
Its % IgG is 64.2%.

What about the % half molecule [25] of the same substance?
Its % half molecule is 35.8%.

And the Other molecules (%) [26]?
Its Other molecules (%) is 3%.

And the Full IgG found (%) [27]?
The Full IgG found (%) was 60%.

What about the Half molecules found (%) [27] of the same substance?
Its Half molecules found (%) is 40%.

And the Other molecules (%) [28]?
The Other molecules (%) was 3%.

And the Bispecific found (%) [29]?
Its Bispecific found (%) is 42%.

And the Bispecific found (%) [30]?
Its Bispecific found (%) is 55%.

And the Bispecific found (%) [31]?
The Bispecific found (%) was 16%.

And the Bispecific found (%) [32]?
The Bispecific found (%) was 58%.

What about the Bispecific found (%) [33] of the same substance?
The Bispecific found (%) was 60%.

What about the Bispecific found (%) [34] of the same substance?
Its Bispecific found (%) is 39%.

And the percent of species in the mixture [35]?
The percent of species in the mixture was 61%.

And the percent of species in the mixture [36]?
The percent of species in the mixture was 67%.

And the Bispecific found (%) [37]?
The Bispecific found (%) was 38%.

“IgG1 heavy chain with CH3 construct 65 (S354D, Y349D) (from UniProt P01857-1)” was tested. Which CC found (%) [38] did it give?
Its CC found (%) is 33%.

For “IgG1 heavy chain with CH3 construct 5 (E356K, E357K, K439D, K370D) (from UniProt P01857-1)”, which CC found (%) [39] is on record?
The CC found (%) was 9%.

And the CC found (%) [40]?
The CC found (%) was 48%.

And the CC found (%) [41]?
Its CC found (%) is 30%.

What about the CC found (%) [42] of the same substance?
The CC found (%) was 9%.

And the CC found (%) [43]?
Its CC found (%) is 100%.

Which results are given for “IgG1 heavy chain with CH3 construct 72 (L351D, R355D) (from UniProt P01857-1)”?
% BB found [44]: 8%; % IgG [45]: 100%

Which BB found (%) [46] does the source give for “IgG1 heavy chain with CH3 construct 4 (K392D, D399K, K409D) (from UniProt P01857-1)” here?
The BB found (%) was 45%.

What about the BB found (%) [47] of the same substance?
The BB found (%) was 4%.

And the BB found (%) [48]?
Its BB found (%) is 81%.

What about the BB found (%) [49] of the same substance?
Its BB found (%) is 100%.

How did the CC found (%) [50] turn out when “IgG1 heavy chain with CH3 construct 67 (K360D) (from UniProt P01857-1)” was run?
The CC found (%) was 15%.
